# B1: Hammerhead Ribozyme (parent)
# chain: ACCGGAUGUGCUUUCCGGUCUGAUGAGUCCGUGAGGACGAAACAG
# Variants of: B1
# Assay: self-cleavage, relative activity (ratio to wild type); higher = more cleavage; co-transcriptional
row,Variant,self-cleavage
1,U24G G39A,0.327
2,A1G C29A,0.835
3,G5U G31U,1.2
4,G8U C11U,1.37
5,U21G C30U,0.837
6,A26G G39C,0.309
7,C16U G18A,0.618
8,G8U A40G,0.376
9,A6G U32A,0.968
10,G27U U28A,0.552
11,A6U G33A,0.793
12,C3G U12A,0.352
13,C16A G25U,0.331
14,G4U G39A,0.263
15,G27A C29U,0.598
16,C3G C43G,0.273
17,C30A G33C,0.755
18,G8C C20A,0.461
19,U14C C15G,0.794
20,G36C A41G,0.449
21,C2G G4A,0.322
22,C20U A41U,0.37
23,G25A A44G,0.64
24,G10U A26G,0.317

row,Variant,self-cleavage
1,U13A G22U,0.381
2,A1C U14C,0.331
3,G25A C30G,0.305
4,U19C G31U,0.789
5,G8C C38G,0.596
6,A23G G25U,0.321
7,A23C A40C,0.31
8,G27U G36A,0.303
9,C11A U28A,1.04
10,C16G U19A,0.253
11,U9C G18U,0.738
12,C30A U32A,0.797
13,C30A U32G,0.892
14,A6G A40C,0.355
15,C2U U14A,0.8
16,U14G A41C,0.34
17,C2U G25A,0.386
18,U19C C38U,0.36
19,U19C U32A,0.551
20,U21A C29A,0.31
21,G5A C38U,0.935
22,C3U C15U,0.984
23,U32A A41C,0.347
24,A42G G45U,0.354

row,Variant,self-cleavage
1,U7G C38G,0.521
2,G4C A40C,0.352
3,U9C G36C,0.82
4,U19G A40C,0.294
5,G17C G18C,0.347
6,A6C G35U,0.744
7,A1U U32G,0.465
8,G22U G27U,0.273
9,U14C C43U,0.337
10,G25U G36U,0.334
11,A26U U32A,0.846
12,G4A G5C,0.365
13,U13G U24A,1.36
14,G18U G22U,0.378
15,C2G G17U,0.291
16,C11A G39U,0.29
17,G4C G35U,0.426
18,G17A G39A,0.326
19,C11A C43U,0.616
20,U12A G33U,1.03
21,U24G C38A,0.742
22,U24G C38U,0.656
23,G27C A41G,0.457
24,C3U C30U,0.929

row,Variant,self-cleavage
1,U9C A34U,0.65
2,C30A A40U,0.347
3,A6G C15A,0.707
4,U12A C15U,0.668
5,G25U C29A,0.321
6,U24C G35C,0.461
7,G17A A23U,0.315
8,U19C G27U,0.311
9,G33A A37G,1.28
10,G18A A41U,0.358
11,G18A A41G,0.37
12,U32A G45U,0.707
13,G27C U28C,0.431
14,G27A A44U,0.53
15,G22C A37U,0.259
16,G17U G33U,0.9
17,G27A G31A,0.61
18,G25C U28G,0.311
19,U19A U28G,0.374
20,A1U G5C,0.287
21,C3U G35C,0.625
22,C3U G35U,0.761
23,C20U A42C,0.323
24,U12A C29U,0.881

row,Variant,self-cleavage
1,U7G U19G,0.304
2,U9A C20G,0.422
3,U9G G39A,0.307
4,U24A A42C,0.363
5,G22U A42C,0.359
6,G4A U21G,0.374
7,A6C C15G,0.559
8,C2A C30U,0.847
9,U12A C16A,1.03
10,C11G U24C,1.07
11,C29U A44G,1.27
12,C29U A41C,0.319
13,A40U C43A,0.344
14,C3U C16A,0.476
15,U19G G31U,0.451
16,G39C A40U,0.296
17,C29A G33A,0.816
18,G10A G25A,0.365
19,U14C A41C,0.301
20,A23G,0.439
21,C3A G8A,0.629
22,U12G G27A,0.914
23,C15G G39A,0.327
24,G39A G45U,0.372

row,Variant,self-cleavage
1,C15U A44U,0.664
2,C20G U28C,0.261
3,U12C C20A,0.449
4,U13C U19A,0.351
5,C2G C29A,0.311
6,C20U U21C,0.531
7,G5A U24C,1.43
8,U14G G22C,0.301
9,C11A U12C,1.08
10,G22A U32A,0.306
11,A1U G18A,0.477
12,U13G C30A,0.933
13,G17U G18C,0.503
14,A37C,1
15,U7G C43G,0.427
16,C3A G5A,0.319
17,C29G G31A,1.01
18,C2U G22A,0.341
19,C15U C20A,0.511
20,C16U G25C,0.265
21,U24A,1.03
22,U7C C30U,0.842
23,U9A A44C,0.523
24,G8A C16G,1.03

row,Variant,self-cleavage
1,G27U G35A,0.334
2,U12G U24C,1.18
3,G31A A44C,0.685
4,C29G G35U,0.665
5,U14C U28G,0.544
6,C2U U19C,0.531
7,A40G A41C,0.341
8,G4C,0.784
9,U13G U28A,0.673
10,G27U G31C,0.462
11,U14C U24C,0.889
12,C16U A42U,0.273
13,G4U G18A,0.297
14,C29U G33U,0.92
15,C29U G33C,1.09
16,U24A U32C,0.569
17,A1G G39U,0.428
18,G17U G35C,0.405
19,C2A G4U,1.77
20,U13C,1.12
21,G31A A42C,0.38
22,U7A U14C,1.17
23,G22U G45U,0.428

# From the RNAGym collection of RNA variant scans (doi:10.7554/elife.80360)
